Reference: the supplement of paper PMC9170038

System: K4 kissing-loop RNA reporter
Experiment: apparent KD of K4 kissing-loop reporter; higher = weaker reporter binding
Details: Eterna round: R107
Protocol: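 RNA-MaP round R107: designed RNA switches with theophylline, tryptophan, arginine or FMN aptamers are transcribed on-chip within common flanks. They are titrated with a labelled K4 kissing-loop RNA reporter in RNA-MaP buffer (100 mM Tris pH 7.5, 80 mM KCl, 4 mM MgCl2), without ligand or with the indicated ligand. Median apparent KD per design.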

[1] = input ligand: theophylline 20 uM
[2] = input ligand: tryptophan 2.4 mM
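Note: bound reporter read as fluorescence of individual clusters on recovered sequencing chips by microscopy, with normalized cluster intensities fitted with a binding model.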

Row | Sequence | apparent KD of K4 kissing-loop reporter (input ligand: FMN 200 uM) [µM] | apparent KD of K4 kissing-loop reporter (input ligand: arginine 13.2 mM) [µM] | apparent KD of K4 kissing-loop reporter (input ligand: none) [µM] | apparent KD of K4 kissing-loop reporter [1] [µM] | apparent KD of K4 kissing-loop reporter [2] [µM]
1 | CUCGUGGGUUUGGGAGGGCUUGUGGGAAGAUAGGAUAUCUAGGGAGGGAGAAGGAUCUAUAGAAUAUAGUGAUGUUAUAUAUGGG [SSFMNA.aA] | 0.118 | 0.261 | 0.165 | 0.23 | 0.106
2 | UCCUCGAAUCGACCUCGAAAGAGGAUGGAUACCAGUCUUGAUAAAGACCCUUGGCAGCCAGUGAUGUUGGAACGAGGUAAAUAAA [#SwitchBubble 19 #K4Late] | 0.531 | 0.365 | 0.571 | 0.535 | 0.359
3 | UGUGUUUACCUGACUCAGUGAUGUUGAGAAGGAGCGUGCAAACGCACAGGUAGGUCGCUCAACCUAAAUUCAGGUGAGCACUAAA | 0.568 | 0.38 | 0.453 | 0.423 | 0.406
4 | GAACGGAGUGAUGUUCCGUUGACGAUCCUACGAGGACCGGUACGGCCGCCACUCGUAUUGCAGUGAUGUUGCAACCAGCCGUACU [Exclusion Tryptophan A GF 10] | 0.104 | 0.112 | 0.102 | 0.106 | 0.0879
5 | UUUCGUAGAAGUGAUACCAGACUGGAAAGUGAUGUUUUCCAAUUAUUUAAAUCCUUAUCUGUCCCUUGGCAGCACAGUUUAUUUA [JR_Nu_ExcTheophyB_Sub027] | 0.0718 | 0.0813 | 0.0755 | 0.0976 | 0.07
6 | AAAAUAAACCAGUGAUGUUGGUGUCCAGAUACCAGCGAUAAUCAUCGCCCUUGGCAGCUGCGGACGUACAAAAUAAGUACGUCCU [MatMod 12 - Jieux - Same State - Theophylline A] | 0.665 | 0.475 | 0.707 | 0.399 | 0.567
7 | UGUACCGAGUCAGGAUAUGGCGUCGAAAGACGAAUCCUAGUGAUGUUAGGGAUCUGCGAAAGCAGUCCAGAAGGGACUUGGUACU [FmnBS 26 #SwitchBubble #StaticStem #DoubleMagnetSystem] | 0.275 | 0.34 | 0.357 | 0.389 | 0.373
8 | UGACUGGACUGAAGGAGCGCUAAACUCCUAGUGAUGUUAGGAAAACGAGACAAAGUCUCGAGGCAGGUAGGUCGCAGUCUAGUCU [ArgBS 18 #SwitchBubble #StaticStem] | 0.123 | 0.12 | 0.136 | 0.128 | 0.114
9 | AACCACUCGUUACAUCACUAUCGAGUGGAACGAGGACCGGUACGGCCGCCACUCGAUUAGAUGCAGUGAUGUUGCAUCUUAGAAU [KL-SSTryp-A (BrourdMod)3 #dotplot2 strengthened] | 0.195 | 0.163 | 0.165 | 0.176 | 0.133
10 | AGGUCCGAGCCUGCAAAGGCUCGGACCUGUUAGGAUAUGACGUUAUUCAGAAGGGAUGGGUGGAGUGAUGUUCCACCCGCAAGGG [#2 Same State - FMN A Attempt #7 (HarryS)] | 0.142 | 0.105 | 0.12 | 0.0984 | 0.113
11 | GAUCUAUGUCCCGAUACCAGCUCAGAAGCUAGGGAGUGAUGUUCUCGGAGGUUAUCACUGAGCCCUUGGCAGCGGAACGUGACGA [theeternabot_sameState_KL_Theo_B_26] | 0.227 | 0.182 | 0.239 | 0.23 | 0.218
12 | CCAGGAUGAUGAGGAUGAUGAAUUACUGAAGGAGCGCAUAUGGUUGCAGGUAGGUCGCGGUGAACAAGUAUAGUGAUGUUAUGCC [SSArgA.W] | 0.575 | 0.615 | 0.795 | 1.16 | 0.545
13 | AUUCUGUUUUUGAUGUUUUUUGUAUAAUGGCAGGAUAUCGUAGAAGCGAGAAGGGCUUUUAUGCGUUAUGAGUGAUGUUUGUAGG [ttytewvmullin] | 0.298 | 0.222 | 0.271 | 0.275 | 0.227
14 | UGAUGUUUAGUUCACCCAGUGAUGUUGGAAGGAGCGUGCGAAAGCACAGGUAGGUCGCCAACCUAAAAGUGUCUUGAUUAUCUAA [JR_Nu_ExcArginiA_Sub028] | 0.352 | 0.317 | 0.444 | 0.46 | 0.289
15 | UAGCGGGCGAUUCGACGUGCGUCCAGUCAUCGAGGACCGGUACGGCCGCCACUCGCCGGAGUGAUGUUCCGGUACGUCAUAUAAU [theeternabot_sameState_KL_Trp_A_35] | 0.406 | 0.358 | 0.398 | 0.422 | 0.197
16 | CGCAGUGAUGUUGCGAACAUAAUGCAUUCAGAGGAUAUUCGUUUGGGAAGAAGGCUGAAUCGUUUUUCGAGUGAUGUUUGAGGAA [Same State FMN A GF 18] | 0.106 | 0.0882 | 0.114 | 0.091 | 0.0946
17 | GGAUAGGAUAGAGGAUAUGGGUUAGGCAAGAAUAACUUGUCUUGUAAAUCCAUGAGGAGUGAUGUUCCAGAAGGCUGUCCUAUCG [MatMod 5 - Jieux - Exclusion - FMN B] | 0.301 | 0.113 | 0.112 | 0.114 | 0.0936
18 | UCAUAUACCAGAAGGAGCGUGCAGGACGAAUUAAUCAUCGACCUUAGUGAUGUUAAGGACGCACAGGUAGGUCGCUGGUAUAUGA [Arg B SS t4] | 0.445 | 0.431 | 0.479 | 0.484 | 0.439
19 | GUGGGCUCGGGAGGAUAUGAGUCUAGUGAUGUUAGGCGGUCCAUGCGCGUGGCGCGUUAUGCCCUUUUAGAAGGCCCGAGCCCUC [#2 Exclusion - FMN B Attempt #24 (HarryS)] | 0.0998 | 0.0688 | 0.0901 | 0.0864 | 0.0853
20 | AAAAUAAACCAGUGAUGUUGGUGUCUGGAUACCAGCGACGAAAGUCGCCCUUGGCAGCUACGGACGUACAAAAUAAGUACGUCCU [MatMod 8 - Jieux - Same State - Theophylline A] | 0.709 | 0.487 | 0.655 | 0.68 | 0.561
21 | UGAUACCAGACGGCCGCCACUCCCGUAAGUCAAAGACUUACGAAGAGAGUUAUCCAGUGAUGUUGGAGGACCGGGUCUGGUAUCU [FiskerMod 14 - Jieux - Exclusion - Tryptophan B] | 0.21 | 0.199 | 0.192 | 0.199 | 0.261
